Data published in the supplement of paper PMC10567573.

B1: BCL2L13 (parent)
chain: MASSSTVPLGFHYETKYVVLSYLG
B2: BEX1 (parent)
chain: HSLRAVSTDPPHHDHHDEFCLMP

Variants of: B1
Experiment: protein stability index of a GFP-peptide fusion (GPS, HEK-293T) (PSI 1-6); higher = more stable
Details: c terminus: a fixed tail appended

Row | Variant | protein stability index
1 | M1I | 2.51
2 | M1R | 2.48
3 | M1P | 2.72
4 | M1W | 2.52
5 | M1G | 3.23
6 | M1T | 2.27
7 | M1D | 3.17
8 | M1K | 2.03
9 | M1Q | 1.76
10 | M1V | 2.12
11 | M1C | 2.59
12 | M1S | 2.15
13 | M1F | 2.74
14 | M1Y | 2.09
15 | M1E | 2.12
16 | M1H | 2.59
17 | G10N | 2.93
18 | G10V | 2.14
19 | G10H | 3.03
20 | G10F | 2.22
21 | G10M | 2.73
22 | G10R | 3.6
23 | G10Q | 1.69
24 | G10T | 3.54
25 | G10D | 2.02
26 | G10Y | 4.41

Row | Variant | protein stability index
27 | G10I | 1.73
28 | G10L | 2.52
29 | G10C | 2.1
30 | G10S | 2.77
31 | G10A | 2.01
32 | G10W | 2.57
33 | G10K | 3.29
34 | G10E | 2.13
35 | A2P | 2.49
36 | A2Q | 2.37
37 | A2T | 3.3
38 | A2M | 2.68
39 | A2C | 3.03
40 | A2L | 2.56
41 | A2I | 1.92
42 | A2R | 2.37
43 | A2N | 3.27
44 | A2F | 3.22
45 | A2H | 2.74
46 | A2S | 3.1
47 | A2D | 2.56
48 | A2K | 2.38
49 | A2E | 2.06
50 | A2G | 2.72
51 | L9Y | 2.57
52 | L9T | 2.45

Row | Variant | protein stability index
53 | L9M | 2.35
54 | L9G | 2.75
55 | L9P | 2.1
56 | L9W | 3.66
57 | L9E | 2.33
58 | L9S | 3.42
59 | L9D | 2.32
60 | L9C | 3.98
61 | L9F | 1.33
62 | L9H | 2.31
63 | L9Q | 2.62
64 | L9V | 2.06
65 | L9K | 2.57
66 | L9R | 1.79
67 | L9A | 2
68 | L9N | 3.25
69 | L9I | 3.14
70 | H12M | 2.39
71 | H12G | 2.11
72 | H12T | 1.81
73 | H12K | 2.23
74 | H12Y | 3.26
75 | H12C | 3.05
76 | H12V | 2.67
77 | H12I | 2.75
78 | H12D | 2.39

Row | Variant | protein stability index
79 | H12E | 2.55
80 | H12Q | 2.67
81 | H12L | 1.49
82 | H12P | 2.5
83 | H12W | 2.66
84 | H12S | 3.12
85 | H12R | 1.91
86 | H12F | 3.51
87 | H12A | 2.3
88 | H12N | 2.12
89 | S5Q | 2.96
90 | S5V | 2.17
91 | S5H | 2.09
92 | S5N | 2.72
93 | S5W | 2.02
94 | S5P | 2.24
95 | S5T | 2.71
96 | S5Y | 3.24
97 | S5M | 2.51
98 | S5C | 2.11
99 | S5A | 1.72
100 | S5F | 2.55
101 | S5E | 1.53
102 | S5R | 2.4
103 | S5K | 1.91
104 | S5L | 2.16

Row | Variant | protein stability index
105 | S5I | 2.74
106 | S5D | 2.72
107 | S5G | 2.2
108 | F11K | 2.63
109 | F11A | 2.41
110 | F11M | 2.82
111 | F11G | 1.35
112 | F11P | 2.33
113 | F11S | 1.9
114 | F11Q | 2.85
115 | F11W | 1.89
116 | F11I | 2.02
117 | F11R | 1.71
118 | F11D | 2.03
119 | F11L | 2.36
120 | F11Y | 2.49
121 | F11E | 1.94
122 | F11T | 1.81
123 | F11C | 2.63
124 | F11H | 1.67
125 | F11N | 2.69
126 | E14S | 2.62
127 | E14F | 1.81
128 | E14Q | 3.35
129 | E14W | 3.62
130 | E14T | 2.3

Row | Variant | protein stability index
131 | E14M | 3.1
132 | E14N | 2.48
133 | E14V | 2.46
134 | E14D | 2.67
135 | E14R | 2.14
136 | E14K | 2.72
137 | E14A | 2.21
138 | E14H | 1.75
139 | E14I | 2.82
140 | E14Y | 2.64
141 | E14P | 2.24
142 | E14G | 2.09
143 | T15E | 2.61
144 | T15C | 1.71
145 | T15A | 1.86
146 | T15D | 2.03
147 | T15F | 1.5
148 | S4P | 3.27
149 | S4T | 2.81
150 | S4M | 1.76
151 | S4D | 2.74
152 | S4Y | 2.38
153 | S4I | 2.21
154 | S4W | 2.93
155 | S4E | 4.38
156 | S4K | 2.21

Row | Variant | protein stability index
157 | S4G | 2.49
158 | S4N | 1.7
159 | S4A | 2.6
160 | S4H | 2.24
161 | S4Q | 3.25
162 | S4V | 2.91
163 | V7H | 2.67
164 | V7E | 3.31
165 | V7Y | 3.3
166 | V7P | 2.14
167 | V7D | 3.29
168 | V7F | 2.17
169 | V7A | 2.78
170 | V7T | 2.36
171 | V7N | 3.19
172 | V7G | 2.08
173 | V7R | 2.33
174 | V7I | 2.72
175 | V7W | 2.36
176 | V7K | 2.84
177 | V7M | 2.35
178 | V7L | 3.03
179 | V7S | 3.11
180 | V7C | 3.72
181 | S3N | 2.59
182 | S3M | 2.72

Row | Variant | protein stability index
183 | S3A | 2.39
184 | S3F | 1.99
185 | S3Y | 2.64
186 | S3G | 3.46
187 | S3C | 2.59
188 | S3R | 2.97
189 | S3D | 2.57
190 | S3I | 3.39
191 | S3E | 3.48
192 | S3P | 2.9
193 | S3V | 3
194 | S3T | 3.21
195 | S3H | 2.77
196 | S3Q | 2.21
197 | S3K | 2.62
198 | T6W | 2.27
199 | T6S | 2.95
200 | T6H | 3.22
201 | T6N | 2.58
202 | T6C | 1.67
203 | T6V | 1.82
204 | T6A | 2.45
205 | T6M | 2.4
206 | T6L | 2.14
207 | T6P | 2.59
208 | T6K | 2.59

Row | Variant | protein stability index
209 | T6I | 2.35
210 | T6Q | 2.26
211 | T6R | 2.82
212 | T6E | 3.45
213 | T6D | 2.29
214 | T6Y | 2.66
215 | T6G | 1.94
216 | P8D | 2.98
217 | P8S | 2.54
218 | P8I | 2.73
219 | P8V | 2.15
220 | P8R | 3.92
221 | P8E | 2.25
222 | P8W | 3.73
223 | P8A | 2.97
224 | P8N | 3.63
225 | P8T | 2.53
226 | P8G | 4.24
227 | P8F | 2.74
228 | P8Q | 2.54
229 | P8Y | 3.53
230 | P8M | 3.28
231 | P8L | 1.66
232 | P8K | 3.91
233 | P8H | 2.22
234 | Y13W | 2.16

Row | Variant | protein stability index
235 | Y13A | 2.82
236 | Y13T | 2.28
237 | Y13K | 1.44
238 | Y13L | 2.59
239 | Y13I | 2.65
240 | Y13M | 2.14
241 | Y13C | 2.25
242 | Y13N | 1.7
243 | Y13G | 2.14
244 | Y13R | 1.85
245 | Y13H | 2.27
246 | Y13F | 3.43
247 | Y13P | 1.84
248 | Y13E | 1.59
249 | Y13D | 2.35
250 | Y13V | 2.51
251 | Y13S | 2.07
252 | Y13Q | 1.39

Variants of: B2
Experiment: as above
Details: c terminus: native

Row | Variant | protein stability index
253 | H16P | 2.78
254 | C20Y | 2.92
255 | C20P | 1.97
256 | H15I | 2.19
257 | D9I | 2.76
258 | D9Q | 3.63
259 | D9H | 1.85
260 | D9T | 4.07
261 | D17P | 2.96
262 | H13P | 2.23
263 | S2P | 1.93
264 | S2G | 2.21
265 | L21P | 2.75
266 | L21G | 2.9
267 | L21D | 2.46
268 | E18P | 2.79
269 | E18D | 2.6
270 | M22C | 2.48
271 | M22N | 2.52
272 | M22H | 2.01
273 | M22A | 2.11
274 | M22D | 2.11
275 | M22G | 1.79
276 | M22I | 2.04
277 | M22L | 1.91

Row | Variant | protein stability index
278 | M22P | 2.68
279 | M22T | 3.4
280 | M22S | 2.59
281 | M22F | 1.19
282 | M22Y | 2.35
283 | S7K | 2.62
284 | S7A | 1.29
285 | S7P | 2.54
286 | S7E | 2.32
287 | T8P | 2.14
288 | D14T | 3.55
289 | D14H | 2.62
290 | R4Y | 2.16
291 | R4H | 2.76
292 | R4S | 2
293 | R4P | 2.6
294 | R4N | 2.64
295 | R4D | 2.54
296 | H1V | 1.77
297 | A5R | 1.68
298 | A5P | 2.3
299 | A5Y | 2
300 | F19H | 2.8
301 | F19D | 2.37
302 | V6T | 1.79

Row | Variant | protein stability index
303 | V6H | 1.83
304 | V6Q | 2.21
305 | V6E | 2.26
306 | V6W | 3.53
307 | P23D | 4.48
308 | P23L | 2.66
309 | P23C | 2.32
310 | P23F | 2.41
311 | P23M | 2.12
312 | P23H | 3.59
313 | P23V | 2.19
314 | P23N | 3.49
315 | P23G | 2.55
316 | P23W | 2.19
317 | P23R | 2.45
318 | P23T | 1.75
319 | P23Y | 2.07
320 | P23Q | 2.84
321 | P23K | 2.9
322 | P23S | 2.77
323 | P23E | 3.77
324 | L3F | 2.27
325 | L3P | 2.19
326 | H12T | 3.57
327 | P11H | 2.62

Variants of: B2
Experiment: as above
Details: c terminus: native
Remark: another data set of the same source

Row | Variant | protein stability index
328 | P23D | 4.52
329 | P23L | 3.24
330 | P23C | 3.58
331 | P23F | 3.35
332 | P23M | 3.17
333 | P23H | 3.81
334 | P23V | 3.07
335 | P23N | 4.23
336 | P23G | 3.75
337 | P23W | 2.97
338 | P23R | 3.16
339 | P23I | 2.44
340 | P23T | 3.02
341 | P23S | 3.56
342 | P23E | 4.61
